The nature of this data set: total protein half-life in vivo (active degradation + dilution); higher = more stable protein.
The mark [1] stands for this setting: E. coli NCM3722 delta-clpP delta-lon delta-hslV, growth: N-lim chemostat, doubling time 6 h.
[2] abbreviates: E. coli NCM3722 delta-clpP, growth: N-lim chemostat, doubling time 6 h.
Setting [3] is: E. coli NCM3722 delta-hslV, growth: N-lim chemostat, doubling time 6 h.
Setting [4] is: E. coli NCM3722 delta-lon, growth: N-lim chemostat, doubling time 6 h.
The mark [5] stands for this setting: E. coli NCM3722 delta-smpB, growth: N-lim chemostat, doubling time 6 h.
Setting [6] is: wild type E. coli NCM3722, growth: C-lim chemostat, doubling time 3 h.
Setting [7] is: wild type E. coli NCM3722, growth: C-lim chemostat, doubling time 6 h.
Setting [8] is: wild type E. coli NCM3722, growth: C-lim chemostat, doubling time 12 h.
Setting [9] is: wild type E. coli NCM3722, growth: N-lim chemostat, doubling time 6 h.
The mark [10] stands for this setting: wild type E. coli NCM3722, growth: N-lim chemostat, doubling time 12 h.
[11] abbreviates: wild type E. coli NCM3722, growth: P-lim chemostat, doubling time 12 h.
Where [12] appears, read: wild type E. coli NCM3722, growth: P-lim chemostat, doubling time 6 h.

± gives the standard deviation of the averaged measurements.

Regarding “MTTLAIDIGGTKLAAALIGADGQIRDRRELPTPASQTPEALRDALSALVSPLQAHAQRVAIASTGIIRDGSLLALNPHNLGGLLHFPLVKTLEQLTNLPTIAINDAQAAAWAEFQALDGDITDMVFITVSTGVGGGVVSGCKLLTGPGGLAGHIGHTLADPHGPVCGCGRTGCVEAIASGRGIAAAAQGELAGADAKTIFTRAGQGDEQAQQLIHRSARTLARLIADIKATTDCQCVVVGGSVGLAEGYLALVETYLAQEPAAFHVDLLAAHYRHDAGLLGAALLAQGEKL”, the “total protein half-life in vivo” value reads like this: under setting [1], 4.69 ± 0.65 h; under setting [2], 4.78 ± 0.069 h; under setting [3], 4.19 ± 0.69 h; under setting [4], 3.56 ± 1.9 h; under setting [5], 4.85 ± 0.36 h; under setting [6], 2.57 ± 0.17 h. For the same sequence, the “total protein half-life in vivo” value is 5 ± 0.45 h under setting [7]; 9.07 ± 0.36 h under setting [8]; 5.02 ± 0.21 h under setting [9]; 5.13 ± 2.2 h under setting [10]; 10.5 ± 0.22 h under setting [11].
As for “MENKSARAKVQAFGGFLTAMVIPNIGAFIAWGFITALFIPTGWLPNEHFAKIVGPMITYLLPVMIGSTGGHLVGGKRGAVMGGIGTIGVIVGAEIPMFLGSMIMGPLGGLVIKYVDKALEKRIPAGFEMVINNFSLGIAGMLLCLLGFEVIGPAVLIANTFVKECIEALVHAGYLPLLSVINEPAKVLFLNNAIDQGVYYPLGMQQASVNGKSIFFMVASNPGPGLGLLLAFTLFGKGMSKRSAPGAMIIHFLGGIHELYFPYVLMKPLTIIAMIAGGMSGTWMFNLLDGGLVAGPSPGSIFAYLALTPKGSFLATIAGVTVGTLVSFAITSLILKMEKTVETESEDEFAQSANAVKAMKQEGAFSLSRVKRIAFVCDAGMGSSAMGATTFRKRLEKAGLAIEVKHYAIENVPADADIVVTHASLEGRVKRVTDKPLILINNYIGDPKLDTLFNQLTAEHKH”, the “total protein half-life in vivo” value was determined as 2.08 h under setting [6], 3.65 h under setting [7] and 8.89 h under setting [8].
For “MLDPNLLRNEPDAVAEKLARRGFKLDVDKLGALEERRKVLQVKTENLQAERNSRSKSIGQAKARGEDIEPLRLEVNKLGEELDAAKAELDALQAEIRDIALTIPNLPADEVPVGKDENDNVEVSRWGTPREFDFEVRDHVTLGEMHSGLDFAAAVKLTGSRFVVMKGQIARMHRALSQFMLDLHTEQHGYSENYVPYLVNQDTLYGTGQLPKFAGDLFHTRPLEEEADTSNYALIPTAEVPLTNLVRGEIIDEDDLPIKMTAHTPCFRSEAGSYGRDTRGLIRMHQFDKVEMVQIVRPEDSMAALEEMTGHAEKVLQLLGLPYRKIILCTGDMGFGACKTYDLEVWIPAQNTYREISSCSNVWDFQARRMQARCRSKSDKKTRLVHTLNGSGLAVGRTLVAVMENYQQADGRIEVPEVLRPYMNGLEYIG [P0A8L1]”, the “total protein half-life in vivo” value under setting [1] amounted to 5.7 ± 0.32 h; the “total protein half-life in vivo” value under setting [2] is 5.43 ± 0.54 h; the “total protein half-life in vivo” value under setting [3] worked out at 5.59 ± 0.06 h; the “total protein half-life in vivo” value under setting [4] came to 5.511 ± 0.051 h; the “total protein half-life in vivo” value under setting [5] was found to be 5.16 ± 0.24 h; the “total protein half-life in vivo” value under setting [6] is 3.66 ± 0.21 h. In addition, the “total protein half-life in vivo” value reads like this: under setting [7], 6.43 ± 0.77 h; under setting [8], 11.5 ± 0.57 h; under setting [9], 5.63 ± 0.29 h; under setting [10], 9.239 ± 0.058 h; under setting [12], 6.28 ± 0.27 h; under setting [11], 13.3 ± 1.1 h.
Take “MIVAFCLYKYFPFGGLQRDFMRIASTVAARGHHVRVYTQSWEGDCPKAFELIQVPVKSHTNHGRNAEYYAWVQNHLKEHPADRVVGFNKMPGLDVYFAADVCYAEKVAQEKGFLYRLTSRYRHYAAFERATFEQGKSTKLMMLTDKQIADFQKHYQTEPERFQILPPGIYPDRKYSEQIPNSREIYRQKNGIKEQQNLLLQVGSDFGRKGVDRSIEALASLPESLRHNTLLFVVGQDKPRKFEALAEKLGVRSNVHFFSGRNDVSELMAAADLLLHPAYQEAAGIVLLEAITAGLPVLTTAVCGYAHYIADANCGTVIAEPFSQEQLNEVLRKALTQSPLRMAWAENARHYADTQDLYSLPEKAADIITGGLDG”: the “total protein half-life in vivo” value came out at 6.84 ± 0.81 h under setting [1]; 7.01 ± 1.2 h under setting [2]; 6.71 ± 0.8 h under setting [3]; 5.95 ± 0.33 h under setting [4]; 5.9 ± 0.47 h under setting [5]; 3.115 ± 0.015 h under setting [6]. Besides, the “total protein half-life in vivo” value was 6.72 ± 0.35 h under setting [7]; 11.8 ± 2.6 h under setting [8]; 6.2 ± 0.56 h under setting [9]; 12.3 ± 1.8 h under setting [10]; 6.25 ± 0.29 h under setting [12]; 12.2 ± 0.98 h under setting [11].
“MNNDVFPNKFKAALAAKQVQIGCWSALSNPISTEVLGLAGFDWLVLDGEHAPNDISTFIPQLMALKGSASAPVVRVPTNEPVIIKRLLDIGFYNFLIPFVETKEEAELAVASTRYPPEGIRGVSVSHRANMFGTVADYFAQSNKNITILVQIESQQGVDNVDAIAATEGVDGIFVGPSDLAAALGHLGNASHPDVQKAIQHIFNRASAHGKPSGILAPVEADARRYLEWGATFVAVGSDLGVFRSATQKLADTFKK”: the “total protein half-life in vivo” value came to 4.58 ± 0.62 h under setting [1]; 4.02 ± 1.4 h under setting [2]; 2.99 ± 0.14 h under setting [3]; 3.19 h under setting [4]; 3.51 ± 0.42 h under setting [5]; 3.2103 ± 7.8e-05 h under setting [6]. Further, the “total protein half-life in vivo” value by setting is: under setting [7], 5.123 ± 0.023 h; under setting [8], 9.79 ± 0.92 h; under setting [9], 3.355 ± 0.022 h; under setting [10], 7.58 h; under setting [11], 11.6 ± 0.72 h.
As to “MKKLILIAIMASGLVACAQSTAPQEDSRLKEAYSACINTAQGSPEKIEACQSVLNVLKKEKQHQQFADQESVRVLDYQQCLRATQTGNDQAVKADCDKVWQEIRSNNK”, the “total protein half-life in vivo” value is 5.85 h under setting [5], 9.68 ± 2.6 h under setting [8] and over 16 h under setting [10].
As for “MFEYLPELMKGLHTSLTLTVASLIVALILALIFTIILTLKTPVLVWLVRGYITLFTGTPLLVQIFLIYYGPGQFPTLQEYPALWHLLSEPWLCALIALSLNSAAYTTQLFYGAIRAIPEGQWQSCSALGMSKKDTLAILLPYAFKRSLSSYSNEVVLVFKSTSLAYTITLMEVMGYSQLLYGRTYDVMVFGAAGIIYLVVNGLLTLMMRLIERKALAFERRN [P0AE30]”, the “total protein half-life in vivo” value by setting is: under setting [1], 5.31 h; under setting [2], 6.27 h; under setting [4], 5.01 h; under setting [7], 5.55 h; under setting [9], 5.22 h; under setting [12], 6.32 h. Besides, the “total protein half-life in vivo” value under setting [11] turned out to be 11 h.

Source of the values: the supplement of paper PMC11246515.
